From patent US20220306695A1, “COMPSTATIN ANALOGUES AND THEIR MEDICAL USES” (priority 2019, published 2022)
Positions of bridges follow the written chain, without caps; N, C: chain ends. Non-standard residues stand in square brackets, D forms with d. Trp(1-Me) = Cn1cc(C[C@H](N)C(=O)O)c2ccccc21; 1Nal = N[C@@H](Cc1cccc2ccccc12)C(=O)O; 2Nal = N[C@@H](Cc1ccc2ccccc2c1)C(=O)O; Sar = CNCC(=O)O

B1: Compound 56 (peptide)
peptide: Ac-EGSAFCI[1Nal]QDWGEHRCTE-NH2
modifications: disulfide 6-16
SMILES: CC[C@H](C)[C@@H]1NC(=O)[C@@H](NC(=O)[C@H](Cc2ccccc2)NC(=O)[C@H](C)NC(=O)[C@H](CO)NC(=O)CNC(=O)[C@H](CCC(=O)O)NC(C)=O)CSSC[C@@H](C(=O)N[C@H](C(=O)N[C@@H](CCC(=O)O)C(N)=O)[C@@H](C)O)NC(=O)[C@H](CCCNC(=N)N)NC(=O)[C@H](Cc2c[nH]cn2)NC(=O)[C@H](CCC(=O)O)NC(=O)CNC(=O)[C@H](Cc2c[nH]c3ccccc23)NC(=O)[C@H](CC(=O)O)NC(=O)[C@H](CCC(N)=O)NC(=O)[C@H](Cc2cccc3ccccc23)NC1=O
B2: Compound 70 (peptide)
peptide: Ac-EGSAYCI[Trp(1-Me)]QEWGEHRC[Sar]E-NH2
modifications: disulfide 6-16
SMILES: CC[C@H](C)[C@@H]1NC(=O)[C@@H](NC(=O)[C@H](Cc2ccc(O)cc2)NC(=O)[C@H](C)NC(=O)[C@H](CO)NC(=O)CNC(=O)[C@H](CCC(=O)O)NC(C)=O)CSSC[C@@H](C(=O)N(C)CC(=O)N[C@@H](CCC(=O)O)C(N)=O)NC(=O)[C@H](CCCNC(=N)N)NC(=O)[C@H](Cc2c[nH]cn2)NC(=O)[C@H](CCC(=O)O)NC(=O)CNC(=O)[C@H](Cc2c[nH]c3ccccc23)NC(=O)[C@H](CCC(=O)O)NC(=O)[C@H](CCC(N)=O)NC(=O)[C@H](Cc2cn(C)c3ccccc23)NC1=O
B3: Compound 65 (peptide)
peptide: Ac-YCI[2Nal]QDWGEHRCTGAES-NH2
modifications: disulfide 2-12
SMILES: CC[C@H](C)[C@@H]1NC(=O)[C@@H](NC(=O)[C@H](Cc2ccc(O)cc2)NC(C)=O)CSSC[C@@H](C(=O)N[C@H](C(=O)NCC(=O)N[C@@H](C)C(=O)N[C@@H](CCC(=O)O)C(=O)N[C@@H](CO)C(N)=O)[C@@H](C)O)NC(=O)[C@H](CCCNC(=N)N)NC(=O)[C@H](Cc2c[nH]cn2)NC(=O)[C@H](CCC(=O)O)NC(=O)CNC(=O)[C@H](Cc2c[nH]c3ccccc23)NC(=O)[C@H](CC(=O)O)NC(=O)[C@H](CCC(N)=O)NC(=O)[C@H](Cc2ccc3ccccc3c2)NC1=O
B4: Compound 59 (peptide)
peptide: Ac-EGSAYCI[Trp(1-Me)]QDWGEHRCTE-NH2
modifications: disulfide 6-16
SMILES: CC[C@H](C)[C@@H]1NC(=O)[C@@H](NC(=O)[C@H](Cc2ccc(O)cc2)NC(=O)[C@H](C)NC(=O)[C@H](CO)NC(=O)CNC(=O)[C@H](CCC(=O)O)NC(C)=O)CSSC[C@@H](C(=O)N[C@H](C(=O)N[C@@H](CCC(=O)O)C(N)=O)[C@@H](C)O)NC(=O)[C@H](CCCNC(=N)N)NC(=O)[C@H](Cc2c[nH]cn2)NC(=O)[C@H](CCC(=O)O)NC(=O)CNC(=O)[C@H](Cc2c[nH]c3ccccc23)NC(=O)[C@H](CC(=O)O)NC(=O)[C@H](CCC(N)=O)NC(=O)[C@H](Cc2cn(C)c3ccccc23)NC1=O
B5: Compound 58 (peptide)
peptide: Ac-EGSAFCI[Trp(1-Me)]QDWGEHRCEGE-NH2
modifications: disulfide 6-16
SMILES: CC[C@H](C)[C@@H]1NC(=O)[C@@H](NC(=O)[C@H](Cc2ccccc2)NC(=O)[C@H](C)NC(=O)[C@H](CO)NC(=O)CNC(=O)[C@H](CCC(=O)O)NC(C)=O)CSSC[C@@H](C(=O)N[C@@H](CCC(=O)O)C(=O)NCC(=O)N[C@@H](CCC(=O)O)C(N)=O)NC(=O)[C@H](CCCNC(=N)N)NC(=O)[C@H](Cc2c[nH]cn2)NC(=O)[C@H](CCC(=O)O)NC(=O)CNC(=O)[C@H](Cc2c[nH]c3ccccc23)NC(=O)[C@H](CC(=O)O)NC(=O)[C@H](CCC(N)=O)NC(=O)[C@H](Cc2cn(C)c3ccccc23)NC1=O
B6: Compound 71 (peptide)
peptide: Ac-SEYCI[Trp(1-Me)]QDWGEHRC[Sar]EA-NH2
modifications: disulfide 4-14
SMILES: CC[C@H](C)[C@@H]1NC(=O)[C@@H](NC(=O)[C@H](Cc2ccc(O)cc2)NC(=O)[C@H](CCC(=O)O)NC(=O)[C@H](CO)NC(C)=O)CSSC[C@@H](C(=O)N(C)CC(=O)N[C@@H](CCC(=O)O)C(=O)N[C@@H](C)C(N)=O)NC(=O)[C@H](CCCNC(=N)N)NC(=O)[C@H](Cc2c[nH]cn2)NC(=O)[C@H](CCC(=O)O)NC(=O)CNC(=O)[C@H](Cc2c[nH]c3ccccc23)NC(=O)[C@H](CC(=O)O)NC(=O)[C@H](CCC(N)=O)NC(=O)[C@H](Cc2cn(C)c3ccccc23)NC1=O
B7: Compound 45 (peptide)
peptide: Ac-EGSAFCIWQDWGEHRC[Sar]E-NH2
modifications: disulfide 6-16
SMILES: CC[C@H](C)[C@@H]1NC(=O)[C@@H](NC(=O)[C@H](Cc2ccccc2)NC(=O)[C@H](C)NC(=O)[C@H](CO)NC(=O)CNC(=O)[C@H](CCC(=O)O)NC(C)=O)CSSC[C@@H](C(=O)N(C)CC(=O)N[C@@H](CCC(=O)O)C(N)=O)NC(=O)[C@H](CCCNC(=N)N)NC(=O)[C@H](Cc2c[nH]cn2)NC(=O)[C@H](CCC(=O)O)NC(=O)CNC(=O)[C@H](Cc2c[nH]c3ccccc23)NC(=O)[C@H](CC(=O)O)NC(=O)[C@H](CCC(N)=O)NC(=O)[C@H](Cc2c[nH]c3ccccc23)NC1=O
B8: Compound 68 (peptide)
peptide: Ac-YCI[Trp(1-Me)]QDWGEHRCTEAGS-NH2
modifications: disulfide 2-12
SMILES: CC[C@H](C)[C@@H]1NC(=O)[C@@H](NC(=O)[C@H](Cc2ccc(O)cc2)NC(C)=O)CSSC[C@@H](C(=O)N[C@H](C(=O)N[C@@H](CCC(=O)O)C(=O)N[C@@H](C)C(=O)NCC(=O)N[C@@H](CO)C(N)=O)[C@@H](C)O)NC(=O)[C@H](CCCNC(=N)N)NC(=O)[C@H](Cc2c[nH]cn2)NC(=O)[C@H](CCC(=O)O)NC(=O)CNC(=O)[C@H](Cc2c[nH]c3ccccc23)NC(=O)[C@H](CC(=O)O)NC(=O)[C@H](CCC(N)=O)NC(=O)[C@H](Cc2cn(C)c3ccccc23)NC1=O
B9: Compound 72 (peptide)
peptide: Ac-FCI[Trp(1-Me)]QDW[Sar]EHRCTGAES-NH2
modifications: disulfide 2-12
SMILES: CC[C@H](C)[C@@H]1NC(=O)[C@@H](NC(=O)[C@H](Cc2ccccc2)NC(C)=O)CSSC[C@@H](C(=O)N[C@H](C(=O)NCC(=O)N[C@@H](C)C(=O)N[C@@H](CCC(=O)O)C(=O)N[C@@H](CO)C(N)=O)[C@@H](C)O)NC(=O)[C@H](CCCNC(=N)N)NC(=O)[C@H](Cc2c[nH]cn2)NC(=O)[C@H](CCC(=O)O)NC(=O)CN(C)C(=O)[C@H](Cc2c[nH]c3ccccc23)NC(=O)[C@H](CC(=O)O)NC(=O)[C@H](CCC(N)=O)NC(=O)[C@H](Cc2cn(C)c3ccccc23)NC1=O
B10: Compound 60 (peptide)
peptide: Ac-EGSAFCI[2Nal]QDWGEHRCTE-NH2
modifications: disulfide 6-16
SMILES: CC[C@H](C)[C@@H]1NC(=O)[C@@H](NC(=O)[C@H](Cc2ccccc2)NC(=O)[C@H](C)NC(=O)[C@H](CO)NC(=O)CNC(=O)[C@H](CCC(=O)O)NC(C)=O)CSSC[C@@H](C(=O)N[C@H](C(=O)N[C@@H](CCC(=O)O)C(N)=O)[C@@H](C)O)NC(=O)[C@H](CCCNC(=N)N)NC(=O)[C@H](Cc2c[nH]cn2)NC(=O)[C@H](CCC(=O)O)NC(=O)CNC(=O)[C@H](Cc2c[nH]c3ccccc23)NC(=O)[C@H](CC(=O)O)NC(=O)[C@H](CCC(N)=O)NC(=O)[C@H](Cc2ccc3ccccc3c2)NC1=O
B11: Compound 52 (peptide)
peptide: Ac-ICI[2Nal]QDWGEHRCTGAES-NH2
modifications: disulfide 2-12
SMILES: CC[C@H](C)[C@H](NC(C)=O)C(=O)N[C@H]1CSSC[C@@H](C(=O)N[C@H](C(=O)NCC(=O)N[C@@H](C)C(=O)N[C@@H](CCC(=O)O)C(=O)N[C@@H](CO)C(N)=O)[C@@H](C)O)NC(=O)[C@H](CCCNC(=N)N)NC(=O)[C@H](Cc2c[nH]cn2)NC(=O)[C@H](CCC(=O)O)NC(=O)CNC(=O)[C@H](Cc2c[nH]c3ccccc23)NC(=O)[C@H](CC(=O)O)NC(=O)[C@H](CCC(N)=O)NC(=O)[C@H](Cc2ccc3ccccc3c2)NC(=O)[C@H]([C@@H](C)CC)NC1=O
B12: Compound 69 (peptide)
peptide: Ac-YCI[Trp(1-Me)]QDWGEHRCTESGA-NH2
modifications: disulfide 2-12
SMILES: CC[C@H](C)[C@@H]1NC(=O)[C@@H](NC(=O)[C@H](Cc2ccc(O)cc2)NC(C)=O)CSSC[C@@H](C(=O)N[C@H](C(=O)N[C@@H](CCC(=O)O)C(=O)N[C@@H](CO)C(=O)NCC(=O)N[C@@H](C)C(N)=O)[C@@H](C)O)NC(=O)[C@H](CCCNC(=N)N)NC(=O)[C@H](Cc2c[nH]cn2)NC(=O)[C@H](CCC(=O)O)NC(=O)CNC(=O)[C@H](Cc2c[nH]c3ccccc23)NC(=O)[C@H](CC(=O)O)NC(=O)[C@H](CCC(N)=O)NC(=O)[C@H](Cc2cn(C)c3ccccc23)NC1=O
B13: Compound 57 (peptide)
peptide: Ac-EGSAFCI[Trp(1-Me)]QDWGEHRCTE-NH2
modifications: disulfide 6-16
SMILES: CC[C@H](C)[C@@H]1NC(=O)[C@@H](NC(=O)[C@H](Cc2ccccc2)NC(=O)[C@H](C)NC(=O)[C@H](CO)NC(=O)CNC(=O)[C@H](CCC(=O)O)NC(C)=O)CSSC[C@@H](C(=O)N[C@H](C(=O)N[C@@H](CCC(=O)O)C(N)=O)[C@@H](C)O)NC(=O)[C@H](CCCNC(=N)N)NC(=O)[C@H](Cc2c[nH]cn2)NC(=O)[C@H](CCC(=O)O)NC(=O)CNC(=O)[C@H](Cc2c[nH]c3ccccc23)NC(=O)[C@H](CC(=O)O)NC(=O)[C@H](CCC(N)=O)NC(=O)[C@H](Cc2cn(C)c3ccccc23)NC1=O
B14: Compound 64 (peptide)
peptide: Ac-FCI[2Nal]QDWGEHRCTGAES-NH2
modifications: disulfide 2-12
SMILES: CC[C@H](C)[C@@H]1NC(=O)[C@@H](NC(=O)[C@H](Cc2ccccc2)NC(C)=O)CSSC[C@@H](C(=O)N[C@H](C(=O)NCC(=O)N[C@@H](C)C(=O)N[C@@H](CCC(=O)O)C(=O)N[C@@H](CO)C(N)=O)[C@@H](C)O)NC(=O)[C@H](CCCNC(=N)N)NC(=O)[C@H](Cc2c[nH]cn2)NC(=O)[C@H](CCC(=O)O)NC(=O)CNC(=O)[C@H](Cc2c[nH]c3ccccc23)NC(=O)[C@H](CC(=O)O)NC(=O)[C@H](CCC(N)=O)NC(=O)[C@H](Cc2ccc3ccccc3c2)NC1=O

molecular target: Human C3 (human, UniProt P01024 23-1663); assay: cell-based or functional assay
Sequence (P01024 23-1663 limits assumed): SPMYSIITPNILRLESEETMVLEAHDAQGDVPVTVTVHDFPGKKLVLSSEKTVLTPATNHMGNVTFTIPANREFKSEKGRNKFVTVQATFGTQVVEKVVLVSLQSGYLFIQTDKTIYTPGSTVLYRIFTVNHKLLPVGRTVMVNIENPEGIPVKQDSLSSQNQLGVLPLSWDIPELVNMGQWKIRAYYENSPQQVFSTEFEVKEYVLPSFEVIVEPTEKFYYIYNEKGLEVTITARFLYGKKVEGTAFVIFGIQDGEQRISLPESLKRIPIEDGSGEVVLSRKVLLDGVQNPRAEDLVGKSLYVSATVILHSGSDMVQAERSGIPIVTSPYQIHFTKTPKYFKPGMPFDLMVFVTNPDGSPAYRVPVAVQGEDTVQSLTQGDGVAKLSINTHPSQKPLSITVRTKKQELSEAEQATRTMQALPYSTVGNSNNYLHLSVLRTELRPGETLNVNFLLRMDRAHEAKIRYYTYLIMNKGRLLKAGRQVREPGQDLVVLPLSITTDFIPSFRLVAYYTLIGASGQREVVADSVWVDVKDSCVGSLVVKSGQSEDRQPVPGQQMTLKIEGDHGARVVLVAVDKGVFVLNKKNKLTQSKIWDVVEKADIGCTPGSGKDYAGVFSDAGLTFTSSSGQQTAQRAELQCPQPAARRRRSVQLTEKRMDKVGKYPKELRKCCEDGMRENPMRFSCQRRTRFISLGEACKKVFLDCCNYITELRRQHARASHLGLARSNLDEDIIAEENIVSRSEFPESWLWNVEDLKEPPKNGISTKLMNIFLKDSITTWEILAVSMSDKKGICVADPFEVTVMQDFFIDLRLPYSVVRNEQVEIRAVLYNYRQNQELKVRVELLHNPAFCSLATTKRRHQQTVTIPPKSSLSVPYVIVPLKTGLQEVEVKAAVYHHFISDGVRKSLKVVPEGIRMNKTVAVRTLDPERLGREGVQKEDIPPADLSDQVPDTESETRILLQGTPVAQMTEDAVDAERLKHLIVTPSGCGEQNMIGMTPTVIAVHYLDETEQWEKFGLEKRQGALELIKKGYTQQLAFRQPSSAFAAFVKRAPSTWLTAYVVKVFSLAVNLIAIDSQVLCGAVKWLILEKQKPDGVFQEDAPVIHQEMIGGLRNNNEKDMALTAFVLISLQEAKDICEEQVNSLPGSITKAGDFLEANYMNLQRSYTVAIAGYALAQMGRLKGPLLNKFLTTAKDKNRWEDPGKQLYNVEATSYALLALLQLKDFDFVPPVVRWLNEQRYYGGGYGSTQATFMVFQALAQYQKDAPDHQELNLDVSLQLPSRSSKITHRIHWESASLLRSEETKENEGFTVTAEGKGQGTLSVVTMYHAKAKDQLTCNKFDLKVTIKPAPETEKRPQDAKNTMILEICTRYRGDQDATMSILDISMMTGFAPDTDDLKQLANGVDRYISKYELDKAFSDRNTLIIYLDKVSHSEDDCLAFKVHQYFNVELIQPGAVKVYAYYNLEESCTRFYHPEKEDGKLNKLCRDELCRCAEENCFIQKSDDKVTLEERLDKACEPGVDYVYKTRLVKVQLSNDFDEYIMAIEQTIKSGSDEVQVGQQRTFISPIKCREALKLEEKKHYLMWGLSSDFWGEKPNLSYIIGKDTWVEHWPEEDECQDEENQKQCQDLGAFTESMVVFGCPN

Binder	IC50[nM], inhibition of hemolysis [nM]
B1	< 100
B2	< 100
B3	< 100
B4	< 100
B5	< 100
B6	< 100
B7	< 100
B8	< 100
B9	< 100
B10	< 100
B11	< 100
B12	< 100
B13	< 100
B14	< 100
